These results are taken from paper PMC9405524, “Pre‐steady‐state kinetics and solvent isotope effects support the “billiard‐type” transport mechanism in Na ^+‐translocating pyrophosphatase” (Protein Science : A Publication of the Protein Society, 2022).

Substrate in this data set: O=P(O)(O)OP(=O)(O)O
As to the kind of experiment: PPi hydrolysis in inverted membrane vesicles, automatic Pi analyzer, two-site dimer equation. It is filed as biochemical, Thermotoga maritima. The note with it: 40°C, pH 7.2, 0.1 M MOPS-KOH, 5 mM Mg2+, 10 mM NaCl, first (stronger) site of the dimer, concentration counted as Mg2PPi complex. From the text:
PPi hydrolysis in inverted membrane vesicles, automatic Pi analyzer, two-site dimer equation on Tm‐mPPase (Thermotoga maritima membrane pyrophosphatase)

B1: Tm‐mPPase (Thermotoga maritima membrane pyrophosphatase) (Thermotoga maritima MSB8) (protein)
chain: MYVAALFFLIPLVALGFAAANFAAVVRKPEGTERMKEISSYIRSGADSFLAHETKAIFKVAIVIAILLMIFTTWQTGVAFLLGAVMSASAGIVGMKMATRANVRVAEAARTTKKIGPALKVAYQGGSVMGLSVGGFALLGLVLVYLIFGKWMGQVDNLNIYTNWLGINFVPFAMTVSGYALGCSIIAMFDRVGGGVYTKAADMAADLVGKTELNLPEDDPRNPATIADNVGDNVGDVAGLGADLLESFVGAIVSSIILASYMFPIYVQKIGENLVHQVPKETIQALISYPIFFALVGLGCSMLGILYVIVKKPSDNPQRELNISLWTSALLTVVLTAFLTYFYLKDLQGLDVVGFRFGAISPWFSAIIGIFSGILIGFWAEYYTSYRYKPTQFLSKSSIEGTGMVISNGLSLGMKSVFPPTLTLVLGILFADYFAGLYGVAIAALGMLSFVATSVSVDSYGPIADNAGGISEMCELDPEVRKITDHLDAVGNTTAAIGKGFAIGSAIFAALSLFASYMFSQISPSDIGKPPSLVLLLNMLDARVIAGALLGAAITYYFSGYLISAVTKAAMKMVDEIRRQAREIPGLLEGKAKPDYNRCIEITSDNALKQMGYPAFIAILTPLVTGFLLGAEFVGGVLIGTVLSGAMLAILTANSGGAWDNAKKYLEAGNLEGYGKGSEPHKALVIGDTVGDPLKDTVGPSLDILIKIMSVVSVIAVSIFKHVHLF
notes: recombinant in E. coli C41(DE3), assayed in inverted membrane vesicles; homodimer, subunit mass 77 kDa
For the protein B1, the Km was 1.41 ± 0.04 µM.
